Source: patent US20210186964, “METHODS OF TREATING CANCERS” (Dana-Farber Cancer Institute, Inc., published 2021)

T1: USP1 (UniProt O94782 SEQ:1-770)
T1 sequence: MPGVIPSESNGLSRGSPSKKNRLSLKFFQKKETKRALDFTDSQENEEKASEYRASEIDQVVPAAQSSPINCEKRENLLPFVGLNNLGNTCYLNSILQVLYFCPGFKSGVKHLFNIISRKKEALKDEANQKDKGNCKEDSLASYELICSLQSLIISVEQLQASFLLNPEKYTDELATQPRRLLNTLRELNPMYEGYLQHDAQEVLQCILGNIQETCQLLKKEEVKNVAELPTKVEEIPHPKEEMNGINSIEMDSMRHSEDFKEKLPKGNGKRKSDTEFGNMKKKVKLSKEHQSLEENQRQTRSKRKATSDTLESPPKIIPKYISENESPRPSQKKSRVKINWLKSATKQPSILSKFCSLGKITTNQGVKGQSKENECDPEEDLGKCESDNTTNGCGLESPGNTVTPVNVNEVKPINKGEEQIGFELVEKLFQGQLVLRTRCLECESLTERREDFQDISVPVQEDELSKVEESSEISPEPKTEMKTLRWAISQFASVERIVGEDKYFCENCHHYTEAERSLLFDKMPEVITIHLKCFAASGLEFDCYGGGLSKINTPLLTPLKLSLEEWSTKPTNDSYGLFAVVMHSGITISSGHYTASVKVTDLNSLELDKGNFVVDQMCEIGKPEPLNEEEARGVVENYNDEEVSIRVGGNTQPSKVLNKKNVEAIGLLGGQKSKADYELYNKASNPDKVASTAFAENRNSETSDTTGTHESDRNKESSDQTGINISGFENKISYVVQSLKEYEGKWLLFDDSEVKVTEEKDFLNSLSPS

B1: 40-mer fork DNA (structured_DNA)
DNA 1: CCAGTGAATTGTTGCTCGGTACCTGCTAACGGTAATCGG
DNA 2: CAGCTATGGGACATTCGATACCGAGCAACAATTCACTGG
B2: 40-mer dsDNA (dsDNA)
DNA 1: CCAGTGAATTGTTGCTCGGTACCTGCTAACGGTAATCGG
DNA 2: CCGATTACCGTTAGCAGGTACCGAGCAACAATTCACTGG

How the values were obtained:
USP12 = USP12 (UniProt O75317 SEQ:1-370); experiment: EMSA; 300 nM USP12; conditions: label: Cy3
Protocol: (§1) Recombinant USP1 and UAF1 proteins from R&D systems (E564, E566) were used for some electromobility shift assays and in vitro deubiquitination assays. Electromobility shift assays were performed by pre-incubating fluorophore (Cy3)-tagged DNA and purified protein in binding buffer (20 mM Hepes (pH 7.6), 0.1M KCl, 5 mM MgCl2, 3% (v/v) glycerol, 0.25 mg/ml BSA, 0.05 mM EDTA, 0.5 mM DTT, 0.01% (v/v) NP-40) for 30 min on ice. Samples were then loaded onto 6% polyacrylamide gels and ran at 65V in 0.5× TBE for 135 min at 4° C. Gels were visualized using the LAS-4000 imaging system (GE Healthcare Life Sciences, Pittsburgh, Pa.). DNA used for Ub-AMC, Ub-CHOP2 and electromobility shift assay were 40 bp in length and were designed to have minimal potential of secondary structure formation. The sequences are as follows:
USP1, USP12, and USP46 are related DUB proteins which bind and are stimulated by UAF1 (20, 23, 24, 31, 32). All three proteins contain a conserved UAF1 binding site, localized to a zinc finger region of each polypeptide (FIG. 10A). These USPs bind to a discrete WD40 domain of UAF1 (23, 24). Of the three proteins, USP1 is the largest protein, as shown by the sequence alignment with USP12 and USP46 (FIG. 10C).

UAF1 (WDR48) = UAF1 (WDR48) (UniProt Q8TAF3 Q8TAF3:1-677); experiment: EMSA; 300 nM UAF1; conditions: tags: SF9-made or R&D systems E566, label: Cy3
Protocol: as §1
(§2) Since UAF1 has DNA binding activity, USP1 might also bind DNA and thereby stabilize replication forks. To test this hypothesis, DNA gel shift assays were performed with purified UAF1 protein with or without purified USP1 protein to analyze direct DNA binding activity. Purified proteins were incubated with either single strand DNA, double strand DNA, or fork DNA. The UAF1 protein and the USP1/UAF1 complex generated a reproducible gel shift of all three DNA templates.

USP1 = biological target: T1, USP1; experiment: EMSA; 300 nM USP1; strongest shift; 5 mM MgCl2, 0.1 M KCl, on ice; not disrupted by ML323 (FIG. 11C); conditions: tags: SF9-made or R&D systems E564; label: Cy3; fork with non-complementary single-stranded arms
Protocol: as §1, §2

USP1/UAF1 complex = USP1/UAF1 complex (UniProt O94782;Q8TAF3 O94782:1-785,Q8TAF3:1-677); experiment: EMSA; 100 nM USP1 + 300 nM UAF1; conditions: tags: SF9-made, R&D systems or Boston Biochem, label: Cy3
Protocol: as §1, §2

[1] = fork with non-complementary single-stranded arms

Sequence of USP12 (O75317 whole entry): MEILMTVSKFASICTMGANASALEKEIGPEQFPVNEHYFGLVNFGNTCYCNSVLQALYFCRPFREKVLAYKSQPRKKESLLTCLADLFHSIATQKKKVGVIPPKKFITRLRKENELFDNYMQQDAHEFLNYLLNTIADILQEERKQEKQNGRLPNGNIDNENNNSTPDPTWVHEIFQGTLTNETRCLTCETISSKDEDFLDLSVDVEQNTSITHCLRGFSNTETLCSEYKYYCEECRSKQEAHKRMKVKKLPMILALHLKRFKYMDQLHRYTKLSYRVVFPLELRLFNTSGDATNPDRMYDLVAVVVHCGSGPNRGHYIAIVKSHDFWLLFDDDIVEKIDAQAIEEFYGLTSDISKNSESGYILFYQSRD
Sequence of USP1/UAF1 complex (Q8TAF3 whole entry, one chain of several): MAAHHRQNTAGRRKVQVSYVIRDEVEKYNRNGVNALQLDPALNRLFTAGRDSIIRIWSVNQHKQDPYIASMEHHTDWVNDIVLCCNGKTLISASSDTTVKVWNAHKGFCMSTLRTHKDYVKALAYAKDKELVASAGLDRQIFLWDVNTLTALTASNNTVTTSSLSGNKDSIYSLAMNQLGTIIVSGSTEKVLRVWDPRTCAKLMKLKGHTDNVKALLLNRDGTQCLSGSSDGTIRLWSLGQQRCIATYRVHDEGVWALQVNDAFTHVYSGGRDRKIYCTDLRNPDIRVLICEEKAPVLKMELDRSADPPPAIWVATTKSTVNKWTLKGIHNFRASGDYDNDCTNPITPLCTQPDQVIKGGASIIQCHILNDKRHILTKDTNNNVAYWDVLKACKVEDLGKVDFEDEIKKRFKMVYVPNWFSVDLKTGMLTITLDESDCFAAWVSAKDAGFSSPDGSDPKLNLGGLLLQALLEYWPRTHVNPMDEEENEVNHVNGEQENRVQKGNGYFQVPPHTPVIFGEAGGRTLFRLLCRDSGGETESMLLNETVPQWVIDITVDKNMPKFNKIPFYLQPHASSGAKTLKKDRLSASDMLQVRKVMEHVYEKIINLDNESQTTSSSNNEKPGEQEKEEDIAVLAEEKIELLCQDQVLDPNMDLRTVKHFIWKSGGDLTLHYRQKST
Sequence of UAF1 (WDR48) (Q8TAF3 whole entry, one chain of several): as above

Row | Binder | binding result (USP12; [1]) | binding result (UAF1 (WDR48); [1]) | binding result (USP1) | binding result (USP1/UAF1 complex; [1]) | binding result (USP12) | binding result (UAF1 (WDR48)) | binding result (USP1/UAF1 complex)
1 | B1 | no binding | binds | binds | binds |  |  | 
2 | B2 |  |  |  |  | no binding | binds | binds
3 | CCAGTGAATTGTTGCTCGGTACCTGCTAACGGTAATCGG (ssDNA) [40-mer ssDNA (top)] |  |  |  |  | no binding | binds | binds
